Experimental data from paper PMC12848304, “Small-molecule inhibitor of C‑terminal HSP90 dimerization modulates autophagy and functions synergistically with mTOR inhibition to kill cisplatin-resistant cancer cells” (Cell Death & Disease, 2025).

Molecular target: the molecule itself
Experiment: cross-linking; HSP90α CTD (2 μM) in Na2HPO4 (25 mM; pH 7.4), incubated 1 h at room temperature with different concentrations of VWK147, then BS3 100 μM for 1 h at room temperature; 12% SDS-PAGE and Western blot with anti-HSP90 (AC88)

B1: recombinant HSP90α CTD (domain or fragment)
chain: not shown
notes: C-terminal domain (CTD) of heat shock protein 90 alpha (HSP90α; HSPC1/HSP90AA1); It says human (hHSP90) only of HSP90 in general and in the modelling; also called CTD r-HSP90α; HSP90 CTD; source: recombinant
- stoichiometry N: 2
